Measurements from publication PMC2647307.

The substances below were run on C.PvuII (assay: competition). Conditions: scale: % loss of shifted WT band at 10-fold excess competitor.

Substance	binding signal
Sym CAA/CAA 126-mer	90
Sym CAA/CAT 126-mer	90
Sym CAT/CAA 126-mer	30
Sym CAT/CAT 126-mer	30
